Substitutions are numbered along the chain they refer to.

T1: human IL1RAP on the cell surface (human, UniProt Q9NPH3 21-570)
T1 sequence (looked up): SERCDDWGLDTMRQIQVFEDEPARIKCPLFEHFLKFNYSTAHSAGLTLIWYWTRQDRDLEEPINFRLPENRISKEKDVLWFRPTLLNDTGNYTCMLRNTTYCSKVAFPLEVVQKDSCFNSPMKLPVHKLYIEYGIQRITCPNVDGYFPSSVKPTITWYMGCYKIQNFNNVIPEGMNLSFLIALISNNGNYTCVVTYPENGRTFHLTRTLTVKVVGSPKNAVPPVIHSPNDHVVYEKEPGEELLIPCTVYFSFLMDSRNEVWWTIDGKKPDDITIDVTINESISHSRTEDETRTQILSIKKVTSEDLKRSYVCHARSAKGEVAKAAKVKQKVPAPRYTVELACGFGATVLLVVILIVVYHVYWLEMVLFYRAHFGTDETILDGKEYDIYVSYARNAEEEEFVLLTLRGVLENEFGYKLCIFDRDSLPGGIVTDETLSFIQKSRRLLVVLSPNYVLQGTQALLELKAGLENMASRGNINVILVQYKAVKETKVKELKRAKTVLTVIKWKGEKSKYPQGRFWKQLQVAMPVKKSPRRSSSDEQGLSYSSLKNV

T2: recombinant mf IL1RAP aa21-367 (cynomolgus monkey (Macaca fascicularis), UniProt A0A2K5X5J5 21-367)
T2 construct: also called cynomolgus monkey IL1RAP; cyno IL1RAP
T2 sequence: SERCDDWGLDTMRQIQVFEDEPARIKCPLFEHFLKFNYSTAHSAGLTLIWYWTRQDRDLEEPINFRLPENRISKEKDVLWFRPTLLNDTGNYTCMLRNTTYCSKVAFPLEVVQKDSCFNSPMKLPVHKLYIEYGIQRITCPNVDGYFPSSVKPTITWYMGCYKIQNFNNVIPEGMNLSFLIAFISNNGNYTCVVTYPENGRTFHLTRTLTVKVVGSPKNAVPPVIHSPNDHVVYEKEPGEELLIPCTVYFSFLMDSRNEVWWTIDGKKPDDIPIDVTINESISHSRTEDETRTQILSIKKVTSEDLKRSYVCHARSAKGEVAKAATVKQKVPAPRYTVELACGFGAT

T3: recombinant hIL1RAP Domain1+2+3 (aa21-367) (human, UniProt Q9NPH3 21-367)
T3 construct: Numbering on Uniprot Q9NPH3
T3 sequence (looked up): T2 sequence with F183L, P273T, T326K

B1: h48D2 VH5:VL1 (antibody, human IgG1, kappa, L234A L235A, V domains shown)
VH: QEQLEESGGGLVKPGGTLSLTCTVSGPSLSHFDITWIRQAPGSGLEWIGTISPGVSTYYASWAKSRVTISVDTSLNTVSLKLSSVTAADTATYFCARGGVGSSWKAFDLWGPGTLVTISS
VL: DIVMTQSPSSLSASVGDRVTITCQASESISTALAWYQQKPGKAPKLLIYKASTLPSGVPSRFSGSGSGTDFTLTISSLQPEDFATYYCQQGFSSGNVHNAFGGGTKVVIKR
notes: Humanized; also called VL1:VH5
B2: h48D2 VH1:VL1 (antibody, human IgG1, kappa, L234A L235A, V domains shown)
VH: EVQLEESGGGLVKPGGSLRLSCAASGPSLSHFDITWVRQAPGKGLEWVSTISPGVSTYYASWAKSRFTISRDNSKNTLYLQMNSLRAEDTAVYYCARGGVGSSWKAFDLWGRGTLVTVSS
VL: B1 VL
notes: Humanized; also called VL1:VH1
B3: h48D2 VH1:VL2 (antibody, human IgG1, kappa, L234A L235A, V domains shown)
VH: B2 VH
VL: B1 VL with D1Q, M4L, S9A, S10T, D70E, E81D, F83S, G103Q, V107L, V108E
notes: Humanized; also called VL2:VH1
B4: h48D2 VH5:VL2 (antibody, human IgG1, kappa, L234A L235A, V domains shown)
VH: B1 VH
VL: B1 VL with D1Q, M4L, S9A, S10T, D70E, E81D, F83S, G103Q, V107L, V108E
notes: Humanized; also called VL2:VH5
B5: h48D2 VH1:VL3 (antibody, human IgG1, kappa, L234A L235A, V domains shown)
VH: B2 VH
VL: DILLTQTPSVVSASVGDRVTITCQASESISTALAWYQQKPGQAPRLLIYKASTLPSGVPSRFRGSGSGTDFTLTITSLQPEDFATYYCQQGFSSGNVHNAFGGGTRLEIKR
notes: Humanized; also called VL3:VH1
B6: h48D2 VH2:VL1 (antibody, human IgG1, kappa, L234A L235A, V domains shown)
VH: EVQLVESGGALVQPGGSLRLSCIVSGPSLSHFDITWFRQAPGKGLEWVATISPGVSTYYASWAKSRFTISTDTSKNTLFLQMDSLRAEDTAVYYCARGGVGSSWKAFDLWGPGTLVTVSS
VL: B1 VL
notes: Humanized; also called VL1:VH2
B7: h48D2 VH3:VL4 (antibody, human IgG1, kappa, L234A L235A, V domains shown)
VH: B2 VH with E5L, K13L, N83S, R112L, L115T
VL: B1 VL with D1E, I2L, L11V, S76N, V108E
notes: Humanized; also called VL4:VH3
B8: h48D2 VH5:VL3 (antibody, human IgG1, kappa, L234A L235A, V domains shown)
VH: B1 VH
VL: B5 VL
notes: Humanized; also called VL3:VH5
B9: h48D2 VH3:VL1 (antibody, human IgG1, kappa, L234A L235A, V domains shown)
VH: B2 VH with E5L, K13L, N83S, R112L, L115T
VL: B1 VL
notes: Humanized; also called VL1:VH3
B10: h48D2 VH1:VL4 (antibody, human IgG1, kappa, L234A L235A, V domains shown)
VH: B2 VH
VL: B1 VL with D1E, I2L, L11V, S76N, V108E
notes: Humanized; also called VL4:VH1
B11: h48D2 VH5:VL5 (antibody, human IgG1, kappa, L234A L235A)
heavy: not shown
light: APVLTQSPATLEASVGDRVTITCQASESISTALAWYQQKPGQPPKLLIYKASTLPSGVPSRFSGSGSGTEFTLTISDLESDDAATYYCQQGFSSGNVHNAFGGGTEVVVKRTVAAPSVFIFPPSDEQLKSGTASVVCLLNNFYPREAKVQWKVDNALQSGNSQESVTEQDSKDSTYSLSSTLTLSKADYEKHKVYACEVTHQGLSSPVTKSFNRGEC
notes: Humanized; also called VL5:VH5

The first assay addresses T1, human IL1RAP on the cell surface. Briefly: cell-based or functional assay.
In the case of B1, the “IC50 of IL-1α signaling (HEK-Blue assay)” value was 2.14 nM, the “IC50 of IL-33 signaling (HEK-Blue assay)” value is 3.14 nM, the “IC50 of IL-36α signaling (HEK-Blue assay)” value was determined as 0.286 nM and the “IC50 of IL-36γ signaling (HEK-Blue assay)” value (“IC50 of IL-36γ signaling” below) came out at 3.1 nM.
Turning to B2, the “IC50 of IL-1α signaling (HEK-Blue assay)” value was determined as 227 nM, the “IC50 of IL-1β signaling (HEK-Blue assay)” value turned out to be 51.6 nM and the “IC50 of IL-33 signaling (HEK-Blue assay)” value stood at 254 nM.
With B3, the “IC50 of IL-1α signaling (HEK-Blue assay)” value was 242 nM and the “IC50 of IL-1β signaling (HEK-Blue assay)” value was 37.6 nM.
As to B4, the “IC50 of IL-1α signaling (HEK-Blue assay)” value stood at 3.77 nM, the “IC50 of IL-33 signaling (HEK-Blue assay)” value is 0.647 nM and the “IC50 of IL-36γ signaling” value stood at 0.253 nM.
On to B5, for which the “IC50 of IL-1α signaling (HEK-Blue assay)” value was determined as 231 nM, the “IC50 of IL-1β signaling (HEK-Blue assay)” value turned out to be 17.2 nM and the “IC50 of IL-33 signaling (HEK-Blue assay)” value came to 195 nM.
For the molecule B6, the “IC50 of IL-1α signaling (HEK-Blue assay)” value is around 43800 nM and the “IC50 of IL-1β signaling (HEK-Blue assay)” value amounted to 2.75 nM.
In the case of B7, the “IC50 of IL-1β signaling (HEK-Blue assay)” value was 22.3 nM.
Take B8: the “IC50 of IL-1α signaling (HEK-Blue assay)” value is 4.45 nM, the “IC50 of IL-33 signaling (HEK-Blue assay)” value is 2.72 nM, the “IC50 of IL-36α signaling (HEK-Blue assay)” value came out at 0.0779 nM and the “IC50 of IL-36β signaling (HEK-Blue assay)” value was determined as 17.4 nM. Besides, the “IC50 of IL-36γ signaling” value is 0.167 nM.
With B9, the “IC50 of IL-1β signaling (HEK-Blue assay)” value was 9.54 nM and the “IC50 of IL-33 signaling (HEK-Blue assay)” value was around 87500 nM.
Turning to B10, the “IC50 of IL-1α signaling (HEK-Blue assay)” value came to 347 nM and the “IC50 of IL-1β signaling (HEK-Blue assay)” value was found to be 14.6 nM.
On to B11, for which the “IC50 of IL-1α signaling (HEK-Blue assay)” value amounted to 6.3 nM, the “IC50 of IL-33 signaling (HEK-Blue assay)” value came to 1.23 nM, the “IC50 of IL-36β signaling (HEK-Blue assay)” value is 11.1 nM and the “IC50 of IL-36γ signaling” value turned out to be 0.192 nM.

The next assay concerns the target T2, recombinant mf IL1RAP aa21-367. Briefly: binding ELISA, coated recombinant mf IL1RAP aa21-367.
For the molecule B1, the IC50 (as a rule, the concentration that inhibits the measured activity by half) turned out to be 0.0261 µg/mL.
Consider B2, for which the half-maximal inhibitory concentration (IC50) stood at 0.0226 µg/mL.
Same read-out and setting: for B3 the value was 0.0198 µg/mL; for B4, 0.0218 µg/mL.
Same read-out and setting: for B5 the value was 0.018 µg/mL; for B6, 0.0279 µg/mL.
As for B7, the IC50 came to 0.0303 µg/mL.
On the same count and under the same terms, the result for B8 reads 0.0288 µg/mL; that for B9, 0.0294 µg/mL; that for B10, 0.02 µg/mL.
On the same count and under the same terms, for B11 the value was 0.0313 µg/mL.

In a further assay the target is T3, recombinant hIL1RAP Domain1+2+3 …. The experiment in a line: bio-layer interferometry, human IL1RAP. The method, then:
Affinity measurements were done on BLItz™ Label-Free Protein Analysis System from ForteBio, using the Basic Kinetics module in the BLItz Pro 1.3.1.3 software from Molecular Devices. Protein A biosensors were hydrated in blocking buffer (PBS, 0.5% BSA, 0.05% Tween 20, pH 7.4) for minimum 10 min at room temperature before coating. Protein A biosensors were coated with antibodies by dipping the biosensors in 200 μl of antibody solution (10 μg/ml in blocking buffer) for 30 min at room temperature. The sensors were then incubated in 200 μl blocking buffer for at least 10 min before use. […] The baseline was made in blocking buffer with a duration time of 30 sec. Association was made for 120 sec in hIL1RAP followed by 120 sec dissociation in blocking buffer.
The antibodies were characterized for A) binding (ELISA analysis, human and cynomolgus monkey IL1RAP), B) inhibition of cytokine signaling (HEK-Blue™ assay), C) affinity (Bio-layer interferometry), D) size heterogeneity (SE-HPLC) and E) yield (concentration, A280). […] SE-HPLC was performed using standard procedures and PBS as running buffer. Affinity and cytokine inhibition were measured as previously described in Example 10. All 25 humanized clones were analyzed for blocking activity on IL-1α, IL-1β and IL-33 signaling while only the clones that had retained the inhibitory activity similar to chimeric 48D2 were analyzed for IL-36 inhibition.
KD values for affinity towards human IL1RAP are shown in Table 11 for the humanized 48D2 variants. Affinity was measured using bio-layer interferometry. […] See also Table 4 for a direct comparison of chimeric 48D2, humanized 48D2 variant VH5:VL4, and a humanized and de-immunized 48D2 variant VH5.GL:VL4.
In the case of B1, the equilibrium dissociation constant (Kd) (usually the free concentration of one partner at which half of the binding sites on the other are occupied at equilibrium, for simple one-to-one binding) amounted to 2.75 nM.
Still for that read-out and setting: for B2 the value was 30.3 nM.
On to B3, for which the equilibrium dissociation constant (Kd) came to 33.7 nM.
On the same count and under the same terms, the result for B4 reads 4.27 nM; that for B5, 35 nM; that for B6, 13.2 nM.
Regarding B7, the dissociation constant Kd is 29.6 nM.
Still for that read-out and setting: for B8 the value was 2.33 nM; for B9, 28 nM; for B10, 42.9 nM.
In the case of B11, the dissociation constant (Kd) was 1.68 nM.

The next assay shares this target. The experiment in a line: binding ELISA, coated recombinant hIL1RAP aa21-367. For orientation: ELISA stands for enzyme-linked immunosorbent assay.
For B1, the concentration for half-maximal inhibition (IC50) stood at 0.0248 µg/mL.
Still for that read-out and setting: the result for B2 reads 0.0181 µg/mL; that for B3, 0.0182 µg/mL.
The same measure, in the same setting: for B4 the value was 0.0231 µg/mL; for B5, 0.0201 µg/mL; for B6, 0.0238 µg/mL.
For the molecule B7, the IC50 was 0.0263 µg/mL.
Regarding B8, the IC50 amounted to 0.0249 µg/mL.
On the same count and under the same terms, for B9 the value was 0.0257 µg/mL; for B10, 0.019 µg/mL.
The same measure, in the same setting: for B11 the value was 0.0276 µg/mL.

(Values after patent publication US20220242950A1 (CANTARGIA, published 2022).)
